This test has as its target T1, TRAF6 (UniProt Q9Y4K3 1-522).
T1 sequence: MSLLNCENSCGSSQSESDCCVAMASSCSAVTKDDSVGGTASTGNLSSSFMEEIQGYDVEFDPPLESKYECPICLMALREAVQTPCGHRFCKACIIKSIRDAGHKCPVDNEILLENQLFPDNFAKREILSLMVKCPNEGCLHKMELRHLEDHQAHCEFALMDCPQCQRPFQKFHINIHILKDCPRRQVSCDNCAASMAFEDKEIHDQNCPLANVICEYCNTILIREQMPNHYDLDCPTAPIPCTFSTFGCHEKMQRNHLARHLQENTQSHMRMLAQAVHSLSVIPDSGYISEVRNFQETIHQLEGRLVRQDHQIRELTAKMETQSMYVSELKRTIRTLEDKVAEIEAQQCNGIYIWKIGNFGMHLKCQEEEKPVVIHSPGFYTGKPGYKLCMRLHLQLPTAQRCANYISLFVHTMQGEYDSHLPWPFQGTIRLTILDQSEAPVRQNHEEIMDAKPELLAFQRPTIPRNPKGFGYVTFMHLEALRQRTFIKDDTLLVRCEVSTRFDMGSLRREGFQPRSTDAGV
Put plainly: co-immunoprecipitation and western blot, HEK293T cells (FIG. 3A). A general note: Immunoblotting shows a protein as a band on a membrane.

B1: wild-type NS1 (NS1-Myc/His), nonstructural protein 1 of influenza virus strain A/PR/8 (PR8), C-terminal Myc-His tag (other)
chain: MDPNTVSSFQVDCFLWHVRKRVADQELGDAPFLDRLRRDQKSLRGRGSTLGLDIETATRAGKQIVERILKEESDEALKMTMASVPASRYLTDMTLEEMSRDWSMLIPKQKVAGPLCIRMDQAIMDKNIILKANFSVIFDRLETLILLRAFTEEGAIVGEISPLPSLPGHTAEDVKNAVGVLIGGLEWNDNTVRVSETLQRFAWRSSNENGRPPLTPKQKREMAGTIRSEV
As for B1, the binding result is reported as “no binding”.

These data come from US20220226463A1 (NATIONAL CHENG KUNG UNIVERSITY, published 2022).
